In patent publication US20240261333A1 (published 2024):

Key:
Experiment in all cases: co-IP, anti-FLAG, lysate of cells with N-FLAG B3GNT2; mass spectrometry
[1] = molecular target: T1, KRT4 (human, UniProt P19013 1-520)
T1 construct: also called NP_002263.3

[2] = molecular target: T2, PRRC2A (human, UniProt P48634 1-2157)
T2 construct: also called NP_004629.3 (+1)

[3] = molecular target: T3, LSM12 (human, UniProt Q3MHD2 2-195)
T3 construct: also called NP_689557.1

[4] = molecular target: T4, UBAP2L (human, UniProt Q14157 1-1087)
T4 construct: also called NP_055662.3 (+3)
T4 sequence (looked up): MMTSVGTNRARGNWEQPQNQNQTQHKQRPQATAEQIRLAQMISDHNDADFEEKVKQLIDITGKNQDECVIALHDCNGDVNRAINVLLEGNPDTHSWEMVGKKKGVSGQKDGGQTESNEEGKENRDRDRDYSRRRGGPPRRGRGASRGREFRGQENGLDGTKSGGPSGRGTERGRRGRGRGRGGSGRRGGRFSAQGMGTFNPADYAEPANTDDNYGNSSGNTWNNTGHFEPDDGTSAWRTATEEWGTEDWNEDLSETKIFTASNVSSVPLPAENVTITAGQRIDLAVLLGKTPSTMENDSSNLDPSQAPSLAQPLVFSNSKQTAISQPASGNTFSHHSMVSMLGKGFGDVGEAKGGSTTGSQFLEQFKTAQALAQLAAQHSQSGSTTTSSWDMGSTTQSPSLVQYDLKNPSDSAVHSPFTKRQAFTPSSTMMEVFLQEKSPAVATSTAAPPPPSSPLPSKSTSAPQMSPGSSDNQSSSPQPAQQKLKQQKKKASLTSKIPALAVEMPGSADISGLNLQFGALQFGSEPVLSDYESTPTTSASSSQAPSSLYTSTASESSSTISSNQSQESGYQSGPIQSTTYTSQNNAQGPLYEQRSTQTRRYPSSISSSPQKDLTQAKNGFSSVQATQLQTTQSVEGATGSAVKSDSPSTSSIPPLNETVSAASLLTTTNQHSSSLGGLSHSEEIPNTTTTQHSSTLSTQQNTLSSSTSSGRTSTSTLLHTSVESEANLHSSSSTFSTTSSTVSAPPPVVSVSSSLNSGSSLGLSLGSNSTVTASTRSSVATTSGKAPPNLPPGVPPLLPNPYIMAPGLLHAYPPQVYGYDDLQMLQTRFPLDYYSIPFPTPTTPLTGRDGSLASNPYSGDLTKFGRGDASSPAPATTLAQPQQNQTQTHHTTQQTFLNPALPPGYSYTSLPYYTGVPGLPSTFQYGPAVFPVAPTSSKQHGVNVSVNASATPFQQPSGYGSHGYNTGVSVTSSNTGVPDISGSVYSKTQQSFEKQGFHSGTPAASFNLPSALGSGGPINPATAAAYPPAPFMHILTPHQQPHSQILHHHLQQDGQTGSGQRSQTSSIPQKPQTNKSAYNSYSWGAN

[5] = molecular target: RPS3 (human, UniProt P23396 2-243)
[6] = molecular target: T5, PARP1 (human, UniProt P09874 2-1014)
T5 construct: also called NP_001609.2

[7] = molecular target: T6, SERBP1 (human, UniProt Q8NC51 2-408)
T6 construct: also called NP_001018077.1 (+1)
T6 sequence (looked up): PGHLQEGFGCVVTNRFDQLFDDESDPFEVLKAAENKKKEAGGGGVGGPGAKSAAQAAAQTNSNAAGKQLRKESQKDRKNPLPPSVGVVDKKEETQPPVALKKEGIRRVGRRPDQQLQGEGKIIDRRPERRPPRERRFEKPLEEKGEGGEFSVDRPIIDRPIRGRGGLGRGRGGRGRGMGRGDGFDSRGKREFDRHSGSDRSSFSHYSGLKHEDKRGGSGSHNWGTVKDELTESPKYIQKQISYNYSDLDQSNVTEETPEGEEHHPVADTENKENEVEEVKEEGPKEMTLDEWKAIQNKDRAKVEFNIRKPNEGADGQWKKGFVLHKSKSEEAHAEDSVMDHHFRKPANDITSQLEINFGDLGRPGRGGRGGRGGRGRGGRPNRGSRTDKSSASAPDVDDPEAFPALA

[8] = molecular target: T7, HNRNPK (human, UniProt P61978-3 1-440, limits assumed)
T7 construct: also called NP_001305115.1 (+1)
T7 sequence (P61978 other isoform, or with tags, fused parts or gaps limits assumed): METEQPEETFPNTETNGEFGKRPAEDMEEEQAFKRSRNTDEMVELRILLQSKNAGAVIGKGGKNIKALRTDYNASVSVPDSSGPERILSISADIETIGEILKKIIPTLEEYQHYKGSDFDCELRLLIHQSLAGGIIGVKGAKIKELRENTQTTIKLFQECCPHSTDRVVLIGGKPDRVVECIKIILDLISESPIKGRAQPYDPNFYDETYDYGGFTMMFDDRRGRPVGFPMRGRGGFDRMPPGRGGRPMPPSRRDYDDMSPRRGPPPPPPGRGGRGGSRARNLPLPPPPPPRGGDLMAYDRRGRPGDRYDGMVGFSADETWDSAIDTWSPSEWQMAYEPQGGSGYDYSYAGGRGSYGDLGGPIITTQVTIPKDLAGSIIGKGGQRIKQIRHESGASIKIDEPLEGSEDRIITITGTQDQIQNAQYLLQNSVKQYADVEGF

T5 sequence (P09874 2-1014 limits assumed): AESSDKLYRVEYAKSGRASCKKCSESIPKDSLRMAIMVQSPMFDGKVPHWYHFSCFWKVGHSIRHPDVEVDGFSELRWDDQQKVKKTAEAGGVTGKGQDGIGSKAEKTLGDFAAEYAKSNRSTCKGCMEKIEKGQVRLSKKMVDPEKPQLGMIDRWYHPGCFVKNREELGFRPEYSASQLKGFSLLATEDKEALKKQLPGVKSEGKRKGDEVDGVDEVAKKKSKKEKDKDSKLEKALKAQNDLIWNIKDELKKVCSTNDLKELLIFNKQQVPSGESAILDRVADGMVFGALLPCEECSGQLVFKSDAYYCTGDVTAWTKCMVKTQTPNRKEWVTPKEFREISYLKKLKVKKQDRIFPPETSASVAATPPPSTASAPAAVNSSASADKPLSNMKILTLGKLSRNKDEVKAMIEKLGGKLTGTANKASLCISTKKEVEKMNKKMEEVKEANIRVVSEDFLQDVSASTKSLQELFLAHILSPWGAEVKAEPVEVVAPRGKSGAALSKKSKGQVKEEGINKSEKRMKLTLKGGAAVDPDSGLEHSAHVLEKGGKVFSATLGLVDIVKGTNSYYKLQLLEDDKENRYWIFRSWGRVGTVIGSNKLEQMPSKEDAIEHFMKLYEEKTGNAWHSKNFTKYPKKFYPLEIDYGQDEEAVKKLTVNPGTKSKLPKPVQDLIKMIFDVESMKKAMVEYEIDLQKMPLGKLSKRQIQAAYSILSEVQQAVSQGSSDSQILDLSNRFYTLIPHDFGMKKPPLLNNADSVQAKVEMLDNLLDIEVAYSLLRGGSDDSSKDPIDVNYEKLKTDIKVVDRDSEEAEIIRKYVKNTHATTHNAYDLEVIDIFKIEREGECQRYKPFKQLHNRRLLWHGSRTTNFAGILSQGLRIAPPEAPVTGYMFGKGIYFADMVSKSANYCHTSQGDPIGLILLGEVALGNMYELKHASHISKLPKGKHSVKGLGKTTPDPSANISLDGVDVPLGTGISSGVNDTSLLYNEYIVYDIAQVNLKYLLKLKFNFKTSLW
T1 sequence (P19013 whole entry): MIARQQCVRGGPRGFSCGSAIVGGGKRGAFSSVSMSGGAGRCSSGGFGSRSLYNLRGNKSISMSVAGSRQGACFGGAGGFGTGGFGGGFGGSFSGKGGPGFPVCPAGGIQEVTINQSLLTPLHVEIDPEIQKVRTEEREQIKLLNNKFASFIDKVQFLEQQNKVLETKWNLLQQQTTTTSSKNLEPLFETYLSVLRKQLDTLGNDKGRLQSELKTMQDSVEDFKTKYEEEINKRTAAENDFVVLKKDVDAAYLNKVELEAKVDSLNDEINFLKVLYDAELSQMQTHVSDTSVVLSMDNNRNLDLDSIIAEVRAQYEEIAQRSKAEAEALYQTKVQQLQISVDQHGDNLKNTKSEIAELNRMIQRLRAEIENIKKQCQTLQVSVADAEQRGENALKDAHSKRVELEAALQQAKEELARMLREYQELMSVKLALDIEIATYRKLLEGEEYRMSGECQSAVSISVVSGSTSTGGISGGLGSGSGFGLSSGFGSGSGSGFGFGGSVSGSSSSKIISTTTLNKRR
T2 sequence (P48634 whole entry): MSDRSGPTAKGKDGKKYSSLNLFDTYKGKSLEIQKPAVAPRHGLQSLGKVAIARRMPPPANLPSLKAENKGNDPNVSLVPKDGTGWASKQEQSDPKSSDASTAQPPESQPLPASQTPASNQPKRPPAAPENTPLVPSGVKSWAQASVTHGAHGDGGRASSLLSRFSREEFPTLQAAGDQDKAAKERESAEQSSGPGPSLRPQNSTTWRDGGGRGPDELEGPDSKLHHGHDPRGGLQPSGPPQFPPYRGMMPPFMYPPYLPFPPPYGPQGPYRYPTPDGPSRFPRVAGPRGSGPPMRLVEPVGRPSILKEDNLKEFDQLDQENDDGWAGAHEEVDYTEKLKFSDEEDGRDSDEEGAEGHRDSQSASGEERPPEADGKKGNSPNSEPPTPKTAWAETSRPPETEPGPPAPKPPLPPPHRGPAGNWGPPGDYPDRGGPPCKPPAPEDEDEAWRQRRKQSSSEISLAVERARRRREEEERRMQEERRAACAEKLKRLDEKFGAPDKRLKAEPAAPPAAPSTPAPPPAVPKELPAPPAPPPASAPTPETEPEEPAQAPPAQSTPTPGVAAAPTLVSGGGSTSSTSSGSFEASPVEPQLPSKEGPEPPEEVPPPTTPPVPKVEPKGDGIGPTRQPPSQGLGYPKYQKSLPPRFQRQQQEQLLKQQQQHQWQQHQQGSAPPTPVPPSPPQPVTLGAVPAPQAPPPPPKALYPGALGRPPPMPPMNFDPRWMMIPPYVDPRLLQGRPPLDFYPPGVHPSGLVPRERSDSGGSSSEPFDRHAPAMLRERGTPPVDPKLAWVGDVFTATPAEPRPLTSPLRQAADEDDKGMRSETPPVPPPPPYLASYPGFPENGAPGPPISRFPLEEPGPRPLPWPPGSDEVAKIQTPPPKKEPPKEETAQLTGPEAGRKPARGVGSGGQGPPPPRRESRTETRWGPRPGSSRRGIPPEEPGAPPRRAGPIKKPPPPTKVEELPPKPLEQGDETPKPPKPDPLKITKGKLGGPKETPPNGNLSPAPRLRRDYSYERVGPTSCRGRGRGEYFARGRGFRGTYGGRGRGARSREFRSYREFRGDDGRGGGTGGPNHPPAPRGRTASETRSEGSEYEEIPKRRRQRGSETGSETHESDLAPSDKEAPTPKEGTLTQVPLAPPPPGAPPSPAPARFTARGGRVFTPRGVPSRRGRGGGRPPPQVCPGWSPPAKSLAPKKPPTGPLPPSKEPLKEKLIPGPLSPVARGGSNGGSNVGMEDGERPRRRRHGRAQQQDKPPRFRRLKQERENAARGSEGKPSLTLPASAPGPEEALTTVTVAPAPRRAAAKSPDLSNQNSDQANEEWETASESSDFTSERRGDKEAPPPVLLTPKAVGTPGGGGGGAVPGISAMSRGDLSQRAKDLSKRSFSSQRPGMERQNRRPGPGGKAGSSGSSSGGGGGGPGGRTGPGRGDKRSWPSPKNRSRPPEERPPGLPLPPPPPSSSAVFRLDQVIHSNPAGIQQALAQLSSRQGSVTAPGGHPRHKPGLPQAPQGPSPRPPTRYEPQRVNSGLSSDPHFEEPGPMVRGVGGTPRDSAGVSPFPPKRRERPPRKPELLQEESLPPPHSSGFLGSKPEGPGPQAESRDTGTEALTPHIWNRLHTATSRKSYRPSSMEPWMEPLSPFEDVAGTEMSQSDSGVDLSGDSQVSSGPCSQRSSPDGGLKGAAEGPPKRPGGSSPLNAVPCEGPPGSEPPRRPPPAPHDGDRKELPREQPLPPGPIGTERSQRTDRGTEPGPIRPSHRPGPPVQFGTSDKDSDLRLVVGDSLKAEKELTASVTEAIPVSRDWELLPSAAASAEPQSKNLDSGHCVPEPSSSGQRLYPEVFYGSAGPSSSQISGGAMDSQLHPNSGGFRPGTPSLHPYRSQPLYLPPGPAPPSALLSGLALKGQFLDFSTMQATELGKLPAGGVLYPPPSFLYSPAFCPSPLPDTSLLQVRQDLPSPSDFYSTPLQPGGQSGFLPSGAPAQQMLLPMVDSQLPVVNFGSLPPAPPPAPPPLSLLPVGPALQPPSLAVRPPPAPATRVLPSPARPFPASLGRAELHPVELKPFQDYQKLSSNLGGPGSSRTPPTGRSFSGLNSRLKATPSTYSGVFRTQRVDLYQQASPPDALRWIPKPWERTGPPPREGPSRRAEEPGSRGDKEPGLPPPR
T3 sequence (Q3MHD2 2-195 limits assumed): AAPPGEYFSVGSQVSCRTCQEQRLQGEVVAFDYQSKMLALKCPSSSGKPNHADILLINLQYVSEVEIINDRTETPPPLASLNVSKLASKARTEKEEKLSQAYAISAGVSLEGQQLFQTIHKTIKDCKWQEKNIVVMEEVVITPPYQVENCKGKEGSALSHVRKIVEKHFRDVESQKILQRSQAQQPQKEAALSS

B1: N-terminal FLAG tagged B3GNT2 (enzyme, human, UniProt Q9NY97 1-397, looked up)
chain: MSVGRRRIKLLGILMMANVFIYFIMEVSKSSSQEKNGKGEVIIPKEKFWKISTPPEAYWNREQEKLNRQYNPILSMLTNQTGEAGRLSNISHLNYCEPDLRVTSVVTGFNNLPDRFKDFLLYLRCRNYSLLIDQPDKCAKKPFLLLAIKSLTPHFARRQAIRESWGQESNAGNQTVVRVFLLGQTPPEDNHPDLSDMLKFESEKHQDILMWNYRDTFFNLSLKEVLFLRWVSTSCPDTEFVFKGDDDVFVNTHHILNYLNSLSKTKAKDLFIGDVIHNAGPHRDKKLKYYIPEVVYSGLYPPYAGGGGFLYSGHLALRLYHITDQVHLYPIDDVYTGMCLQKLGLVPEKHKGFRTFDIEEKNKNNICSYVDLMLVHSRKPQEMIDIWSQLQSAHLKC
notes: Overexpressed in cells and pulled down from the lysate with mouse anti-FLAG antibody; also called N-FLAG B3GNT2; N-term FLAG; not shown: N-terminal FLAG tag
co-IP mass spectrometry count [1]: 22 | co-IP mass spectrometry count [2]: 2 | co-IP mass spectrometry count [3]: 4 | co-IP mass spectrometry count [4]: 20 | co-IP mass spectrometry count [5]: 10 | co-IP mass spectrometry count [6]: 0 | co-IP mass spectrometry count [7]: 0 | co-IP mass spectrometry count [8]: 9
